{"source": "paper PMC8067585", "molecular_target": "CePoFUT1 single mutant M172C, singly labelled with ATTO488 or ATTO647N (Caenorhabditis elegans) (UniProt Q18014)", "assay": "single-molecule fluorescence coincidence (dual-colour PIE); CePoFUT1-A488 and CePoFUT1-A647N incubated 1:1 at 1 uM for 30 min in 10 mM Tris, 1 mM EDTA, 0.005% Tween 20, pH 8.5, diluted to 40 pM; substrates at 15-fold molar excess where added; monomer to dimer"}
{"substance": "CePoFUT1 single mutant M172C, singly labelled with ATTO488 or ATTO647N (from UniProt Q18014 26-383) (enzyme)", "values": [{"measurement": "percent dimers (free form)", "result": 6.2, "unit": "%"}, {"measurement": "percent dimers (with GDP and HsEGF11-12-13)", "result": 4.6, "unit": "%"}, {"measurement": "percent dimers (with HsEGF11-12-13)", "result": 6.7, "unit": "%"}, {"measurement": "percent dimers (with HsEGF12)", "result": 6.8, "unit": "%"}, {"measurement": "percent of total protein in a dimeric state", "result": "4 to 6", "unit": "%"}, {"measurement": "stoichiometry N", "result": 2}]}
